Results reported in paper PMC4382702, “Artificial human Met agonists based on macrocycle scaffolds” (Nature Communications, 2015).
Each block holds one molecule with its values, some of them ahead of it. Positions of bridges follow the written chain, without caps; N, C: chain ends.

Legend:
[1] = biological target: T1, human Met ectodomain (Homo sapiens, UniProt P08581); experiment: SPR analysis of macrocycle binding to immobilized human Met ectodomain-Fc
T1 construct: human Met ectodomain-Fc chimera was immobilized; purchased Sino Biological Inc
Description: (§1) The binding constants of the macrocycles to the Met ectodomain were determined by SPR analysis using a Biacore T200 machine (GE Healthcare). The running buffer was HBS EP+ buffer (10 mM Hepes pH 7.4, 150 mM NaCl, 3 mM EDTA and 0.05% (v/v) SurfactantP20) containing 0.1% DMSO. To assess the interaction between human Met and the macrocycles, human Met ectodomain-Fc chimera was immobilized to a surface density of 1,200–1,600 response units (RUs) on a CM5 sensor chip using a human antibody capture kit (GE Healthcare). Macrocycle binding was tested by injecting varying concentrations of the macrocycle at a flow rate of 30 μl min^−1. Binding was quantified by a single-cycle kinetics method. To assess whether macrocycles and hHGF interacted with human, mouse and canine Met, each biotinylated macrocycle or hHGF was immobilized to a surface density of 200–500 RUs (for biotinylated macrocycles) or ~2,200 (for biotinylated hHGF) RUs on a CAP sensor chip using a Biotin CAPture Kit (GE Healthcare), following the standard protocol. Met binding was tested by injecting varying concentrations of the macrocycle at 30 μl min^−1 and quantifying by a single-cycle kinetics method. All data were fitted to the standard 1:1 binding model.

[2] = system: c-Ret; experiment: Transactivation of c-Ret; type: cell-based, human
Description: EHMES-1 cells were cultured in a 12-well plate until they were 80%–90% confluent. The cells were left untreated or stimulated with hHGF or aML5-PEG3 in the presence or absence of the indicated concentrations of the specific Met kinase inhibitor, SU11274 (Calbiochem). Cells were then lysed with 100 μl of Laemmli sample buffer. Lysates were sonicated and centrifuged for 15 min at 15,000 g. Supernatants were analysed by SDS–PAGE gel electrophoresis and western blotting, using anti-phosphorylated Met (Y1234/1235) mAb or anti-phosphorylated c-Ret (Y905) antibody.

[3] = biological target: T2, Met (Y1234/1235) (Homo sapiens, UniProt P08581); experiment: Cell-based phospho-Met ELISA; settings: EHMES-1 cells
T2 construct: endogenous in cells; host or cells: EHMES-1
Description: EHMES-1 cells (2 × 10^4 cells per well) were seeded in a 96-well black μClear-plate (Greiner Bio-One). After 24 h, the cells were stimulated with hHGF or dimeric macrocycle in RPMI1640 medium supplemented with 10% FBS for 10 min. The cells were washed with ice-cold PBS, fixed with 4% paraformaldehyde (PFA) in PBS for 30 min and washed three times with PBS. The cells were blocked with 5% goat serum, 0.02% Triton X-100 in PBS for 30 min and then incubated for 12 h in phospho-Met (Tyr1234/1235) (D26) XP rabbit mAb diluted 1:1,000 in 1% goat serum in PBS at 4 °C. The cells were washed three times with PBS and incubated for 1 h in HRP-conjugated anti-rabbit goat antibody diluted 1:1,000 in 1% goat serum in PBS. Following incubation, the cells were washed four times with PBS. Chemiluminescence was developed with ImmunoStar LD reagent (Wako) and measured by ARVO MX (Perkin Elmer). Relative Met phosphorylation was calculated as (Chemiluminescence unit of sample−chemiluminescence unit of mock control)/(chemiluminescence unit of 1.3 nM hHGF−chemiluminescence unit of mock control).

[4] = biological target: T3, murine Met ectodomain (Mus musculus, UniProt P16056); experiment: SPR with biotinylated macrocycle or hHGF immobilized, murine Met ectodomain injected; type: binding; settings: ligand immobilized on streptavidin sensor chip
T3 construct: murine Met ectodomain-Fc chimera proteins; purchased Sino Biological Inc
Description: as §1
(§2) Supplementary Figure 4. SPR sensorgrams of human (blue), murine (red) and […]
(§3) Measured curves are shown in blue, red and green, and fitted curves are shown in black. […]

[5] = biological target: T4, canine Met ectodomain (Canis lupus familiaris, UniProt Q75ZY9); experiment: SPR with biotinylated macrocycle or hHGF immobilized, canine Met ectodomain injected; type: binding; settings: ligand immobilized on streptavidin sensor chip
T4 construct: canine Met ectodomain were purchased from Sino Biological Inc; purchased Sino Biological Inc
Description: as §1, §2, §3

[6] = biological target: T1, human Met ectodomain; experiment: SPR with biotinylated macrocycle or hHGF immobilized, human Met ectodomain injected; type: binding; settings: ligand immobilized on streptavidin sensor chip
Description: as §1, §2, §3

[7] = system: HCC827 cells; experiment: Cell growth assay in gefitinib-treated HCC827 cells; type: cell-based, human; settings: HCC827 cells with 1 µM gefitinib
Description: Cells were plated at 2,500 cells per well in 96-well plates for calcein-AM staining or 7,500 cells per well in 48-well plates for cell counting. For HUVEC and HDMEC, plates were pre-coated with gelatin (Difco Laboratories, 0.1% for 1 h at 37 °C). After 3 h, the medium was removed and replaced with medium as follows: HUVEC and HDMEC were cultured in endothelial cell basal medium supplemented with 2% (HUVEC) or 1% (HDMEC) FCS, and 90 μg ml^−1 heparin, with or without hHGF or dimeric macrocycle. RPTEC were cultured in REBM supplemented with 0.5% FBS and 2.4 mM L-alanyl-L-glutamine, with or without hHGF or dimeric macrocycle. NHEK was cultured in KBM2 supplemented with 0.4% bovine pituitary extract, 0.33 μg ml^−1 hydrocortisone, 0.39 μg ml^−1 epinephrine, 10 μg ml^−1 transferrin and 1.8 mM CaCl2, with or without hHGF or dimeric macrocycle. […] The culture media (with or without hHGF or dimeric macrocycle) were replaced every second day. After 6 days, cells were stained with 5 μg ml^−1 calcein-AM (Dojindo) at 37 °C for 15 min. Fluorescence of living cells was detected by ARVO MX. Alternatively, cells were harvested with trypsin–EDTA solution, suspended in culture medium and the cell number was determined using a Countess Automated Cell Counter (Life Technologies). Statistical differences between stimulants were calculated using Student’s t-test.

[8] = system: HPAEC; experiment: DNA synthesis (BrdU incorporation); type: cell-based, human; settings: 30 nM dimeric macrocycle or 0.25 nM hHGF, 20 h
Description: Normal HPAECs were maintained in MCDB 131 medium supplemented with 5% FBS and 1.2 nM of basic fibroblast growth factor. Cells were serum starved for 24 h and then stimulated with 30 nM dimeric macrocycle or 0.25 nM hHGF in the presence of 5% FBS and 10 μM BrdU for 20 h. The cells were fixed in 4% PFA in PBS for 30 min, permeabilized with 0.2% Triton X-100 in PBS for 5 min, treated with 2 M HCl for 20 min and neutralized with 0.1 M sodium tetraborate for 5 min. The treated, neutralized cells were incubated with anti-BrdU primary antibody (BD Biosciences) for 2 h and subsequently stained with a fluorescently labelled secondary antibody for 30 min. The nuclei were stained with DAPI. BrdU incorporation was analysed by Biozero fluorescence microscopy (Keyence).

[9] = system: RPTEC; experiment: Branching morphogenesis assay in RPTEC; type: cell-based, human; settings: RPTEC in collagen gels, 8 days
Description: RPTEC (2 × 10^4 cells) were suspended in 400 μl Cellmatrix type IA collagen solution (Nitta Gelatin) in a 48-well plate and allowed to gel for 60 min at 37 °C, according to the manufacturer’s instructions. After gelation, 500 μl REBM supplemented with 0.5% FBS and 2.4 mM L-alanyl-L-glutamine, with or without hHGF (0.42 nM, 1.3 nM) or macrocycles (30 nM, 100 nM), were added to each well. Cells were cultured for 8 days, replacing the culture medium (with or without hHGF or dimeric macrocycle) every second day. HuCCT1 (1 × 10^4 cells) were suspended in 400 μl Cellmatrix type IA collagen solution in a 48-well plate and were allowed to gel for 60 min at 37 °C. After gelation, 500 μl RPMI1640 medium supplemented with 10% FBS, with or without 0.38 nM hHGF or 20 nM dimeric macrocycle, was added to each well. Cells were cultured for 8 days, replacing the culture medium (with or without hHGF or dimeric macrocycle) every second day. TAC-2 cells (4 × 10^3 cells) were suspended in 400 μl type I collagen solution (BD Biosciences) in a 48-well plate. After gelation, 500 μl DMEM supplemented with 10% FBS, with or without hHGF or dimeric macrocycle, was added to each well. Cells were cultured for 7 days, replacing the culture medium (with or without hHGF or dimeric macrocycle) every second day.

[10] = system: 49 representative human RTKs; experiment: Phospho-RTK array; type: cell-based
Description: (§4) EHMES-1 cells were cultured in a six-well plate until they were 80%–90% confluent. After starvation for 6 h, the cells were stimulated with 2 nM hHGF or with 100 nM aML5-PEG3, aMD4-PEG11, aMD5-PEG11 or aMsD4-C6 for 10 min. Cells were then lysed with 200 μl of lysis buffer 17 (R&D Systems) containing 1 × Complete protease inhibitor cocktail (Roche). Lysates were analysed by SDS–PAGE analysis with 10% polyacrylamide gel and standard western blotting. The respective primary antibodies and HRP-conjugated secondary antibodies were diluted 1:2,000 in Can Get Signal Solution 1 (TOYOBO) and 1:5,000 in Can Get Signal Solution 2 (TOYOBO), respectively. Chemiluminescent signals were developed with Luminata Forte HRP substrate (Merck Millipore) and observed using an ImageQuant LAS 350 machine (GE Healthcare). Relative phosphorylation efficiency was evaluated by the band intensity and statistical differences between stimulants were calculated using Student’s t-test. The phospho-RTK array was performed using Proteome Profiler Human Phospho-RTK Array Kit (R&D Systems). For stimulation of cells with FBS, cells were cultured in the presence of 10% FBS, with or without excess concentrations of hHGF (30 nM) or aML5-PEG3 (3,000 nM) for 10 min. Cell lysates of stimulated EHMES-1 cells were analysed according to the manufacturer’s instructions.

[11] = system: Met, Gab1, Akt and Erk1/2; experiment: Western blotting of Met and downstream signalling proteins; type: cell-based, human; settings: starved EHMES-1 cells, hHGF 2 nM or dimers 100 nM, 10 min
Description: as §4

[12] = biological target: T5, Recombinant human Met ectodomain-Fc chimera protein (human, UniProt P08581 25-932); experiment: SPR; Biacore T200; human Met ectodomain-Fc captured (1,200-1,600 RU) on a CM5 chip with a human antibody capture kit; monomeric macrocycle or linear peptide injected at 30 µl/min, single-cycle kinetics; HBS EP+ (10 mM Hepes pH 7.4, 150 mM NaCl, 3 mM EDTA, 0.05% Surfactant P20) with 0.1% DMSO; 1:1 binding model; settings: both partners purified
T5 construct: Hepatocyte growth factor receptor (Met), human, ectodomain; Captured through its Fc with a human antibody capture kit in a1 and a2; injected as analyte in a3; also called human Met extracellular domain; source: bought: Sino Biological Inc

[13] = 10% FBS, hHGF 30 nM or aML5-PEG3 3,000 nM

T5 sequence (P08581 25-932, stated change not applied): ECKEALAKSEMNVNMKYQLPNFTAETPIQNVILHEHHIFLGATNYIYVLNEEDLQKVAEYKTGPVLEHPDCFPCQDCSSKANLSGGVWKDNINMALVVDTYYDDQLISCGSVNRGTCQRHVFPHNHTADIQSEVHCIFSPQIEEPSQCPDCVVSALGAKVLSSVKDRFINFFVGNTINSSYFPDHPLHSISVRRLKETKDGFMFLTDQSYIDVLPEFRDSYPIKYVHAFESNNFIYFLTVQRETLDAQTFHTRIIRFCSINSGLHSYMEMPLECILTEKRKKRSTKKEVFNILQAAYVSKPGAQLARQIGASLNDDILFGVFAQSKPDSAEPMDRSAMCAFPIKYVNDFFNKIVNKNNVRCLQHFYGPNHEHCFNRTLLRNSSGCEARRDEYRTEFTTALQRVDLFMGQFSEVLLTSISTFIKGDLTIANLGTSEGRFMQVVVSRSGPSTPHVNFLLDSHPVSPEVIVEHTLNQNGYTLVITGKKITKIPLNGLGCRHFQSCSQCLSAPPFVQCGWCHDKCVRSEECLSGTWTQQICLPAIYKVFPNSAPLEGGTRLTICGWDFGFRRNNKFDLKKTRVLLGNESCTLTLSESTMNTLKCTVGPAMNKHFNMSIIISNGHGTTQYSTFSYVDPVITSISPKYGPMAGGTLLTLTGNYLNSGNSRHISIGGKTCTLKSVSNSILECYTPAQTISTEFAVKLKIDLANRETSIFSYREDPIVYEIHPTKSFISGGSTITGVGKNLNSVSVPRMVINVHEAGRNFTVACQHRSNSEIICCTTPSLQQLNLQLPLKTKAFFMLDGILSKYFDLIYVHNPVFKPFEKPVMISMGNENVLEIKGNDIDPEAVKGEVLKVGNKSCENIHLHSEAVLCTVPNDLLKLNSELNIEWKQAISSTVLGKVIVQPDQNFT
T1 sequence (P08581 25-932 limits assumed): as the sequence (P08581 25-932, stated change not applied) above
T2 sequence (P08581 308-1390 limits assumed): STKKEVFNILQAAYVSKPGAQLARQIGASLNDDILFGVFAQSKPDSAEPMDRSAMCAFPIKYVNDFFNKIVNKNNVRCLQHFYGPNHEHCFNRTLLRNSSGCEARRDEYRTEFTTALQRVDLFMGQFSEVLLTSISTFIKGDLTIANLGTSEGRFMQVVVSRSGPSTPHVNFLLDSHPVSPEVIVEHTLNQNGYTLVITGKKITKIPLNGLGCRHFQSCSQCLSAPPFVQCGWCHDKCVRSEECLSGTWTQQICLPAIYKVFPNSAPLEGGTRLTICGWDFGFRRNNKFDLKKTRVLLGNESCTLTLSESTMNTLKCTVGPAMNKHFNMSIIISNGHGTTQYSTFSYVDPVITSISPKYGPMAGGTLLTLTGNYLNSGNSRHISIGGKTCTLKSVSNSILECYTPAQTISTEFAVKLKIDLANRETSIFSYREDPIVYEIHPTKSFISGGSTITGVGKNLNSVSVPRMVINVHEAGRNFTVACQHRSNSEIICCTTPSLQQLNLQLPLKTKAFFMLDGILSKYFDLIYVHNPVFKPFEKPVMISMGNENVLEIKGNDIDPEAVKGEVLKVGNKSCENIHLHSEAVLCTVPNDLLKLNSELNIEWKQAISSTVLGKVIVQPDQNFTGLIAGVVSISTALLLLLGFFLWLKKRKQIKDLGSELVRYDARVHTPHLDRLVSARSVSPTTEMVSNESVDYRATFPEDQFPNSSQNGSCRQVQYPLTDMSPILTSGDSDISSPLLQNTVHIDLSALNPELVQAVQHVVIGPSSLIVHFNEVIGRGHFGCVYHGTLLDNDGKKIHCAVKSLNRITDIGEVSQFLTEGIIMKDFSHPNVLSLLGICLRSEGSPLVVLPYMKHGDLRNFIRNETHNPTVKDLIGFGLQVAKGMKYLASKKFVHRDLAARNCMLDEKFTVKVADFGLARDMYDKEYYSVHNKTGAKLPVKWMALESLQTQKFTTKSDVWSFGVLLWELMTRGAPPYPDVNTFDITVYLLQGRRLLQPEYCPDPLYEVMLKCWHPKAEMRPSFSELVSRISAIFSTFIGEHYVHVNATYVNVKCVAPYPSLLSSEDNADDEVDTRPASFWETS
T2 sequence (P08581 25-307 limits assumed): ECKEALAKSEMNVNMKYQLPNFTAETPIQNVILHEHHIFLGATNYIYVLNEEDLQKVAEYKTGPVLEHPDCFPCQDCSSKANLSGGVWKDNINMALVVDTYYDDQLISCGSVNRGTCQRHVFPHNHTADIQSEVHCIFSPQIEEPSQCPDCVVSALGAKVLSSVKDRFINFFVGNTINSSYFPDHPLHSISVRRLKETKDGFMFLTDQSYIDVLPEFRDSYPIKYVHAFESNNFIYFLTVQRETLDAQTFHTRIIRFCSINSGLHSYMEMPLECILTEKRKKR
T3 sequence (P16056 25-931 limits assumed): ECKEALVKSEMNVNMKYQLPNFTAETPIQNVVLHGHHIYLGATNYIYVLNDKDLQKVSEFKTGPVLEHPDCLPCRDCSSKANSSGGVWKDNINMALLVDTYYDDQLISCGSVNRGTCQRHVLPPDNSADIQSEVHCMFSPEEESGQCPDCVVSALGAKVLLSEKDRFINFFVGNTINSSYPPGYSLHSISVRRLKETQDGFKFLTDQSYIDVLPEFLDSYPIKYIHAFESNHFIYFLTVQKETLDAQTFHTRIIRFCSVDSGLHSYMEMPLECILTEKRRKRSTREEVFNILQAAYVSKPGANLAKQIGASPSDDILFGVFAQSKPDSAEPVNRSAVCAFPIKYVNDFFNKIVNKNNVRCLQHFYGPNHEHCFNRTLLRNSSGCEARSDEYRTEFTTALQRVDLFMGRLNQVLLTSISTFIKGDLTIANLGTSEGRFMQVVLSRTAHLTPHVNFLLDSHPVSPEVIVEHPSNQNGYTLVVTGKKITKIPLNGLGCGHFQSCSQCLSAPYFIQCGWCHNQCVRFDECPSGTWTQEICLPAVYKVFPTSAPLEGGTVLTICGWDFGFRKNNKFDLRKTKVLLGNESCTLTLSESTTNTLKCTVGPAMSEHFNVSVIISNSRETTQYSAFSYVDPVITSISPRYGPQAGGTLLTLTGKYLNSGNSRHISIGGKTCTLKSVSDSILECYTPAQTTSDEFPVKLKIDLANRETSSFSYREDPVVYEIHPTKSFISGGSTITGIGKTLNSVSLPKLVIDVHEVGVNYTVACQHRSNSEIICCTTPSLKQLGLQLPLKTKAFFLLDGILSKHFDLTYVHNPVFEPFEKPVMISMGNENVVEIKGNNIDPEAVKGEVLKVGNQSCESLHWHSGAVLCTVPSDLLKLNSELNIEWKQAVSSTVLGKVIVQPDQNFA
T4 sequence (Q75ZY9 25-935 limits assumed): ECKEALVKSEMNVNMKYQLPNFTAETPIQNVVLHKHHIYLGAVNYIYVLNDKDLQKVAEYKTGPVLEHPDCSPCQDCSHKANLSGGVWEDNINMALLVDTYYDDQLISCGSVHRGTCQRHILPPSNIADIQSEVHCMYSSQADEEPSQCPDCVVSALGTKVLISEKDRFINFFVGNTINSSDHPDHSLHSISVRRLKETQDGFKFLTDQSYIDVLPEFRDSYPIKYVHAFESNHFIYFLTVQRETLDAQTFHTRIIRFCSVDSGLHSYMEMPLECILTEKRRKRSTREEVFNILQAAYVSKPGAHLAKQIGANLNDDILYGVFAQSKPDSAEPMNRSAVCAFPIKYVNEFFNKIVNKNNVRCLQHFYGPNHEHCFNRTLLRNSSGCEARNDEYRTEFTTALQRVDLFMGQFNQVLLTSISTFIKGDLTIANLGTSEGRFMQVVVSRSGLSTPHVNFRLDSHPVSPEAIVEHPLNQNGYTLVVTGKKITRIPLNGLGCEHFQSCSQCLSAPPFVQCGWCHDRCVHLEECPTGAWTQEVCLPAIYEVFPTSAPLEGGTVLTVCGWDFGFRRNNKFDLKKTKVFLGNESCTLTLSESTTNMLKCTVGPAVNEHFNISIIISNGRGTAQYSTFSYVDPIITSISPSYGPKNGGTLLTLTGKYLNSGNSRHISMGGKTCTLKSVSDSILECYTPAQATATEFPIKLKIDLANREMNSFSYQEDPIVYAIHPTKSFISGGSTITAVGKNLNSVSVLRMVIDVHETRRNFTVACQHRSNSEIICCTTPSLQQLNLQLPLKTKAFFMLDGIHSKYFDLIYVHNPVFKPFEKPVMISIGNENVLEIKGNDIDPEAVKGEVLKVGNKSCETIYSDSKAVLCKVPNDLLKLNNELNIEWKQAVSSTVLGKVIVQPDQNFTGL

Met Y1234/1235 phosphorylation (agonist activity) ([3]; 10 min stimulation, 10% FBS): equivalent to that of hHGF
Molecule: biotinylated hHGF: hHGF biotinylated using NH2-Reactive Biotin, 1.5 biotin per hHGF

Kd [12]: 1300 nM
koff [12]: 0.017 s⁻¹
kon [12]: 13000 M⁻¹ s⁻¹
B2: aML5-Lin (peptide)
peptide: Ac-YISWNEFNSPNWRFITAG-NH2
notes: linear form of aML5, Ala in place of the ring-closing Cys; also called linear counterpart of aML5; source: synthetic peptide

Second part, the molecule before the results:

Molecule: aML5-Lin: linear counterpart of aML5 (Ac-YISWNEFNSPNWRFITAG-NH2)
KD relative to parental peptides [1]: approximately two orders of magnitude higher

Molecule: Cc1[nH]c(/C=C2\C(=O)Nc3ccc(S(=O)(=O)N(C)c4cccc(Cl)c4)cc32)c(C)c1C(=O)N1CCN(C)CC1 [SU11274, reference compound]
effect of Met inhibitor on c-Ret phosphorylation ([2]; EHMES-1 cells stimulated with 1 nM hHGF or 100 nM aML5-PEG3): decreased c-Ret phosphorylation

Molecule: hHGF: human recombinant hepatocyte growth factor, positive control
c-Ret phosphorylation ([2]; EHMES-1 cells, FBS-containing media): induced c-Ret phosphorylation in a dose-dependent manner
concentration above which Met phosphorylation level decreased (bell-shaped response) [3]: above 5 nM
binding to murine Met ectodomain [4]: binding of the immobilized hHGF to all three of the ectodomains
binding to canine Met ectodomain [5]: binding of the immobilized hHGF to all three of the ectodomains
binding to human Met ectodomain [6]: binding of the immobilized hHGF to all three of the ectodomains
restoration of proliferation [7]: restored in a dose-dependent manner
DNA synthesis (BrdU incorporation) [8]: promoted DNA synthesis
branched tubule formation [9]: developed branched tubules
Met phosphorylation at excess concentration [10, 13]: strongly induced Met phosphorylation
effect on RTKs phosphorylated in FBS-containing media [10, 13]: neither affected the phosphorylation level of the RTKs
RTK phosphorylation selectivity ([10]; EHMES-1 cells, 100 nM dimeric macrocycles or 2 nM hHGF, 10 min, without FBS): specifically phosphorylated Met
phosphorylation of Met and downstream proteins (Gab1, Akt, Erk1/2) [11]: Met was phosphorylated at the Y1234/1235 and Y1349 residues

B1: aML5 (peptide)
peptide: {CH2CO}-YISWNEFNSPNWRFITCG-NH2
modifications: thioether N-17
SMILES: CC[C@H](C)[C@@H]1NC(=O)[C@H](Cc2ccc(O)cc2)NC(=O)CSC[C@@H](C(=O)NCC(N)=O)NC(=O)[C@H]([C@@H](C)O)NC(=O)[C@H]([C@@H](C)CC)NC(=O)[C@H](Cc2ccccc2)NC(=O)[C@H](CCCNC(=N)N)NC(=O)[C@H](Cc2c[nH]c3ccccc23)NC(=O)[C@H](CC(N)=O)NC(=O)[C@@H]2CCCN2C(=O)[C@H](CO)NC(=O)[C@H](CC(N)=O)NC(=O)[C@H](Cc2ccccc2)NC(=O)[C@H](CCC(=O)O)NC(=O)[C@H](CC(N)=O)NC(=O)[C@H](Cc2c[nH]c3ccccc23)NC(=O)[C@H](CO)NC1=O
notes: thioether macrocycle selected by RaPID from the L-library against human Met ectodomain; also called anti-Met L-library macrocycle 5; source: synthetic peptide (Fmoc SPPS, RP-HPLC purified)
Kd [12]: 19 nM
koff [12]: 0.0081 s⁻¹
kon [12]: 430000 M⁻¹ s⁻¹
